Measurements taken from patent publication US10450368 (DUKE UNIVERSITY, dated 2019).

What was measured:
[1] = target: T1, HIV-1 CH505 transmitted/founder gp120 Env (HIV-1); assay: SPR, antibody captured on anti-human Ig Fc, gp120 injected
T1 construct: domain: gp120; also called CH505.TF gp120; CH505 TF gp120 Env

Scl-70 [2] = target: T2, Scl-70 (UniProt P11387 1-765); assay: AtheNA, Ab 6.25 ug/ml
T2 sequence: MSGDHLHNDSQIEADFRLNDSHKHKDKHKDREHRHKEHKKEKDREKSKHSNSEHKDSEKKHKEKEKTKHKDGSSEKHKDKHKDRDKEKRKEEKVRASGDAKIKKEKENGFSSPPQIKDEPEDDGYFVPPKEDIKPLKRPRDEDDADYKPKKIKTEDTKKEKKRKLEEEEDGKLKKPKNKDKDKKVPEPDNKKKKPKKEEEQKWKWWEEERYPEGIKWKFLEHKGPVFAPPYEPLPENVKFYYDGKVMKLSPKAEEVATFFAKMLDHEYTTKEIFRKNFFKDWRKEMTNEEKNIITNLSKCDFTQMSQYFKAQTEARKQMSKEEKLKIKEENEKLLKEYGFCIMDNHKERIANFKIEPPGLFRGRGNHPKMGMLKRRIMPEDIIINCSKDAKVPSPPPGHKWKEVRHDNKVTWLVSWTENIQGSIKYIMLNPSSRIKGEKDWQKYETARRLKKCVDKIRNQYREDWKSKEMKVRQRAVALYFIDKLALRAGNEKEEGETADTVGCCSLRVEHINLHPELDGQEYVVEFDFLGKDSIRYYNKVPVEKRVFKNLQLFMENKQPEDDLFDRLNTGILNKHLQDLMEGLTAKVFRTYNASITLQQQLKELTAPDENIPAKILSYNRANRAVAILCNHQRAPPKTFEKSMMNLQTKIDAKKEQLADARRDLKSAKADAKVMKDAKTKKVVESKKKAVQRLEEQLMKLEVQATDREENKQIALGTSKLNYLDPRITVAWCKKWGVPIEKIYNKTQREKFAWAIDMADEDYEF
Excerpt: AtheNA Multi-Lyte ANA Plus Test System is one such assay. This is luminex-based assay, which is also used to screen patient sera.

[3] = target: CH505 TF loop D mutant M8 Env (pseudovirus) (HIV-1); assay: cell-based or functional assay
Histones [4] = target: T3, Histones; assay: AtheNA, Ab 50 ug/ml
T3 construct: Mixture of proteins

Scl-70 [5] = target: T2, Scl-70; assay: AtheNA, Ab 50 ug/ml
RNP (ribonucleoprotein) = target: T4, RNP (ribonucleoprotein); assay: AtheNA, Ab 12.5 ug/ml
T4 construct: Protein-RNA complex

Sm (Smith antigen) = target: T5, Sm (Smith antigen); assay: AtheNA, Ab 12.5 ug/ml
T5 construct: Protein complex

Histones [6] = target: T3, Histones; assay: AtheNA, Ab 12.5 ug/ml
SSB = target: T6, SSB (UniProt P05455 1-408); assay: AtheNA, Ab 12.5 ug/ml
T6 sequence: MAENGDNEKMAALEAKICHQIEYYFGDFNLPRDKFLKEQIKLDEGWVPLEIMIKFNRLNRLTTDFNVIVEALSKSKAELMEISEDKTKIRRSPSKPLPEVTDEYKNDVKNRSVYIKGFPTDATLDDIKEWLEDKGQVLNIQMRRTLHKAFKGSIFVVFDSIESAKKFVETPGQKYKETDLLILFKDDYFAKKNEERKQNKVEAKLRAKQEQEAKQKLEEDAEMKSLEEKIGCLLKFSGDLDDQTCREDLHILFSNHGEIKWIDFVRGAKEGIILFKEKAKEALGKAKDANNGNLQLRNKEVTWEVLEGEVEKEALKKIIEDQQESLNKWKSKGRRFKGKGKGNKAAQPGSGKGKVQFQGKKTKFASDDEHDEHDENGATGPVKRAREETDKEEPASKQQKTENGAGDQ

Scl-70 [7] = target: T2, Scl-70; assay: AtheNA, Ab 12.5 ug/ml
Centromere B = target: T7, Centromere B (UniProt P07199 1-599); assay: AtheNA, Ab 12.5 ug/ml
T7 construct: also called Cent B
T7 sequence: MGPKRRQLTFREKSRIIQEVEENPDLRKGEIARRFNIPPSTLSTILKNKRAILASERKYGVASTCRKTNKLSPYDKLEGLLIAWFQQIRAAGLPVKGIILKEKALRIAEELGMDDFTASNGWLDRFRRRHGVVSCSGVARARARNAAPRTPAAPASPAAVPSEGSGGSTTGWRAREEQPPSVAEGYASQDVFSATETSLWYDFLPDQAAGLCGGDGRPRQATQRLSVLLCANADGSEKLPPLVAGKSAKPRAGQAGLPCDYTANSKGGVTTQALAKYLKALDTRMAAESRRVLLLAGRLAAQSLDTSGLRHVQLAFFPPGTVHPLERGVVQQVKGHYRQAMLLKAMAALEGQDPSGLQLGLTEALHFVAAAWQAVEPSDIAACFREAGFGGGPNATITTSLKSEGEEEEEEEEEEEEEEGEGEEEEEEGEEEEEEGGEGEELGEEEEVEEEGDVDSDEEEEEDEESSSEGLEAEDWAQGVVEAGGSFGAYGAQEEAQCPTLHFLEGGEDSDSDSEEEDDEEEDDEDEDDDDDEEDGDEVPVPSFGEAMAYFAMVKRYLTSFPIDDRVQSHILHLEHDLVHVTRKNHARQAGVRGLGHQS

Jo-1 = target: T8, Jo-1 (UniProt P12081 1-509); assay: AtheNA, Ab 12.5 ug/ml
T8 sequence: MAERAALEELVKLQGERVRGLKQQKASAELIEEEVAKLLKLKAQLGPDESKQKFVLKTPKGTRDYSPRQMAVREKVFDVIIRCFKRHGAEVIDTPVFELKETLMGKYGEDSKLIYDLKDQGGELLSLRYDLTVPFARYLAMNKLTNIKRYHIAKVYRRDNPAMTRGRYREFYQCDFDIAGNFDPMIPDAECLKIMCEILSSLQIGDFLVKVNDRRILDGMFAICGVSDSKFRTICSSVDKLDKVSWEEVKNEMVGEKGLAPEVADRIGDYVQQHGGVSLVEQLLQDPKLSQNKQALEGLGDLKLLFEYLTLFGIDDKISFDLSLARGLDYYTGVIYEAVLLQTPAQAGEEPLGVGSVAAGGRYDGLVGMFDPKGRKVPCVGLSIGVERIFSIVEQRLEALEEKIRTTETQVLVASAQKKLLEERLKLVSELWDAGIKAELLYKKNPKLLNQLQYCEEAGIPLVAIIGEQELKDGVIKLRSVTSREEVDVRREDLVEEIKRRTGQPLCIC

SSA = target: T9, SSA; assay: AtheNA, Ab 12.5 ug/ml
T9 construct: also called SSA (Ro)

B1: CH241 (antibody, V domains shown)
VH: QVQLVQSGAAVKKPGASVRVSCKASGYTFTSSHIHWVRQAPGQGPEWMGMIDPSVGRPTTAGKFQGRVTMTRDRYTSTAYMDLSSLRSEDTAVYYCARSVETTGSLLYFDYWGQGTLITVSS
VL: EIVLTQSPATLSVSPGERATLSCRASQSVRSNIAWYQQKPGQAPRLLIHGASTRATGIPGRFSGSGSGPEFTLAISSVQSEDFAVYYCQQYNDWWTFGQGTKVEIK
- Kd [1]: 0.7 nM
- koff [1]: 0.00033 s⁻¹

B2: CH493 (antibody, V domains shown)
VH: QVRLLQYGGGVKRPGASMTISCVASGYNFNDYYIHWVRQAPGQGLELMGWIDPSGGRTDYAGAFGDRVSMYRDKSMNTLYMDLRSLRSGDTAMYYCVRNVGTAGSLLHYDHWGLGVMVTVSS
VL: EIVLTQSPATLSVSPGERVTLSCRASQSVRNNLAWYRQKRGQAPRLLIYGASTRATGIPARFSGSGSGTEFTLTISSMQSEDFAVYYCQQYNNWWTFGQGTKVEIK
notes: also called CH235.9; DH493
- AtheNA signal (Scl-70 [2]): 17
- neutralization IC50, TZM-bl pseudovirus assay [3]: 0.66 µg/mL

B3: CH557 (antibody, V domains shown)
VH: QVRLAQYGGGVKRLGATMTLSCVASGYTFNDYYIHWVRQAPGQGFELLGYIDPANGRPDYAGALRERLSFYRDKSMETLYMDLRSLRYDDTAMYYCVRNVGTAGSLLHYDHWGSGSPVIVSS
VL: EIVLTQSPATLSASPGERVTLTCRASRSVRNNVAWYQHKGGQSPRLLIYDASTRAAGVPARFSGSASGTEFTLAISNLESEDFTVYFCLQYNNWWTFGQGTRVDIK
notes: also called CH235.12; CH557_4A/293i
- AtheNA signal (Histones [4]): 16 relative luminescence units
- AtheNA signal (Scl-70 [5]): 6 relative luminescence units
- AtheNA signal (RNP (ribonucleoprotein)): 3 relative luminescence units
- AtheNA signal (Sm (Smith antigen)): 6 relative luminescence units
- AtheNA signal (Histones [6]): 6 relative luminescence units
- AtheNA signal (SSB): 9 relative luminescence units
- AtheNA signal (Scl-70 [7]): 3 relative luminescence units
- AtheNA signal (Centromere B): 16 relative luminescence units
- AtheNA signal (Jo-1): 5 relative luminescence units
- AtheNA signal (SSA): 3 relative luminescence units
